# Data reported in publication PMC11261597, “Three-Step Enzymatic Remodeling of Chitin into Bioactive Chitooligomers” (Journal of Agricultural and Food Chemistry, 2024).
# Test system: T1, CC(=O)N[C@H]1[C@H](Oc2ccc([N+](=O)[O-])cc2)O[C@H](CO)[C@@H](O[C@@H]2O[C@H](CO)[C@@H](O[C@@H]3O[C@H](CO)[C@@H](O)[C@H](O)[C@H]3NC(C)=O)[C@H](O)[C@H]2NC(C)=O)[C@@H]1O
# T1 construct: synthetic gene, codon-optimised, pPICZαA (EcoRI/KpnI), secreted from Pichia pastoris KM71H, purified by Q-Sepharose
# Assay: purified protein
# Type: biochemical, Talaromyces flavus
# Settings: 50 mM citrate/phosphate pH 5.0, 25 °C, 0.1–6 mM substrate
# TfChit (Talaromyces flavus; S181W/W209A), sequence (chain, as listed by the source S181W W209A): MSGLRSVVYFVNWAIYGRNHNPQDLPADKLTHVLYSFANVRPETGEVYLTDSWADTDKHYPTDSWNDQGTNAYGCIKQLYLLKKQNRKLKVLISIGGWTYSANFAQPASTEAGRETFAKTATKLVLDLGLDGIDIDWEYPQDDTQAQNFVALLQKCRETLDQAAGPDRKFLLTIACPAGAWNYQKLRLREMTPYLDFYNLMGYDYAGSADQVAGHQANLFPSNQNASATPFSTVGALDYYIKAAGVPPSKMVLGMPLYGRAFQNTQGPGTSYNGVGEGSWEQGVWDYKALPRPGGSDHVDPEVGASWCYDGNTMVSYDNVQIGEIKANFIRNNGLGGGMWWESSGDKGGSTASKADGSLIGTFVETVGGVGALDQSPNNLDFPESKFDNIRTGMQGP
# TfChit (Talaromyces flavus; D136V/S181W/W209A), sequence (chain, as listed by the source D136V S181W W209A): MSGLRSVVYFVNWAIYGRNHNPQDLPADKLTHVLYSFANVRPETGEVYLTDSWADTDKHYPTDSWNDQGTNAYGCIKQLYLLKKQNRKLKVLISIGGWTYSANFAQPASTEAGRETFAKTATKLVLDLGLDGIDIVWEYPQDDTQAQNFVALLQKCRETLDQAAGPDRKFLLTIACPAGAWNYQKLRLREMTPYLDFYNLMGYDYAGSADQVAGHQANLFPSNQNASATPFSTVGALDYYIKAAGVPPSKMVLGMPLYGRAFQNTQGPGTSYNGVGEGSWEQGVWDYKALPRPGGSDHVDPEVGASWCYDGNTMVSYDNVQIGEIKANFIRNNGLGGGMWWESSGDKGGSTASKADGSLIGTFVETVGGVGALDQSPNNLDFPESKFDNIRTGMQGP
# TfChit (Talaromyces flavus; D136V/S181W), sequence (chain, as listed by the source D136V S181W): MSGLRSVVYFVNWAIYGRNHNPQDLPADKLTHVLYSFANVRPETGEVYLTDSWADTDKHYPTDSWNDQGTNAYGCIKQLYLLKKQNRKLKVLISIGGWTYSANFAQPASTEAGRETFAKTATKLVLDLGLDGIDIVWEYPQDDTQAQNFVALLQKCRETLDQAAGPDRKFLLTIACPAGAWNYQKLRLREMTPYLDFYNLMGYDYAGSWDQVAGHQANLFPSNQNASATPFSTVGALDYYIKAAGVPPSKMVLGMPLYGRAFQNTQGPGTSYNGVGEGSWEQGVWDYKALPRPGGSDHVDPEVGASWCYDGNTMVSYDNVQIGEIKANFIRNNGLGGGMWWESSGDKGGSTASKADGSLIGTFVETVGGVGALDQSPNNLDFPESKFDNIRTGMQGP
# TfChit (Talaromyces flavus; F231W), sequence (chain, as listed by the source F231W): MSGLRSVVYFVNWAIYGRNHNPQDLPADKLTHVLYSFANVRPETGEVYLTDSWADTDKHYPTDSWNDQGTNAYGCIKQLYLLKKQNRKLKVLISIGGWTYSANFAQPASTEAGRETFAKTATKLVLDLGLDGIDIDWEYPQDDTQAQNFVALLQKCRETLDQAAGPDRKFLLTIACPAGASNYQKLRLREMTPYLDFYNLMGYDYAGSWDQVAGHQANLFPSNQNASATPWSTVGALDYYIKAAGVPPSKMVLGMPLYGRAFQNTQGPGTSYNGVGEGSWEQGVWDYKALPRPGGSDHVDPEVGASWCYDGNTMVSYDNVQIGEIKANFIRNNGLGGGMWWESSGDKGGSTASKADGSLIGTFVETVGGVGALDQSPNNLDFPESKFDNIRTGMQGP
# TfChit (Talaromyces flavus), sequence (chain, as listed by the source): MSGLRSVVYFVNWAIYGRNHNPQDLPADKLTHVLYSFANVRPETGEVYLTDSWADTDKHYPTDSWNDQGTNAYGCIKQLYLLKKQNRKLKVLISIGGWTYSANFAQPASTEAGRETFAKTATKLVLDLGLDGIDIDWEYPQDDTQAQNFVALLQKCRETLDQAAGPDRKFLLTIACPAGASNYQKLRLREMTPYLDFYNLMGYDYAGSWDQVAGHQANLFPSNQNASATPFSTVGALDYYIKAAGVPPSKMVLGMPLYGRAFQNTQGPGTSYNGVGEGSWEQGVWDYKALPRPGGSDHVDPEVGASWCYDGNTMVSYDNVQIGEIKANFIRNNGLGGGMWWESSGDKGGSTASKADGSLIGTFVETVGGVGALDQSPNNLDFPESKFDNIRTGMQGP
# TfChit (Talaromyces flavus; W209A), sequence (chain, as listed by the source W209A): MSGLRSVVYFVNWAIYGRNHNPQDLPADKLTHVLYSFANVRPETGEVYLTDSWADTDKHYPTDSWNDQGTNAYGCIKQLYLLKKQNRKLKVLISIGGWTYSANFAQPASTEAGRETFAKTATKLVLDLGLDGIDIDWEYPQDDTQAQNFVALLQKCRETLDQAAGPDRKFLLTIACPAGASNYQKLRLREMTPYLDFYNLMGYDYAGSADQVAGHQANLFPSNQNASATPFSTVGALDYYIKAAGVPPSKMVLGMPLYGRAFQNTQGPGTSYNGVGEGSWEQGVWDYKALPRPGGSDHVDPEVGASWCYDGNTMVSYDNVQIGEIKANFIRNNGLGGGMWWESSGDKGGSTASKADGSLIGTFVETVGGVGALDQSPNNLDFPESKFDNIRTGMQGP
# TfChit (Talaromyces flavus; F231W/W209A), sequence (chain, as listed by the source F231W W209A): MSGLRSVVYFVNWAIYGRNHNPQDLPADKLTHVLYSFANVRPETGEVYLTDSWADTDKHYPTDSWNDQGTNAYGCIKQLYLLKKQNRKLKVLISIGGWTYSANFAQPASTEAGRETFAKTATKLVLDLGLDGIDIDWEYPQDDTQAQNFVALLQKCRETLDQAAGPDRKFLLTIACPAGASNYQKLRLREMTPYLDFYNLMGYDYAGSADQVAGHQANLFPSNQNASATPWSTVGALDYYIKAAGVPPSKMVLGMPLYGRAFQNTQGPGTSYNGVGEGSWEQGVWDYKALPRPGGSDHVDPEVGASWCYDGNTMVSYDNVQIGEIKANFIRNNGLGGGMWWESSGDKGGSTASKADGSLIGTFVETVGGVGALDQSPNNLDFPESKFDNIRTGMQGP
# TfChit (Talaromyces flavus; D136V), sequence (chain, as listed by the source D136V): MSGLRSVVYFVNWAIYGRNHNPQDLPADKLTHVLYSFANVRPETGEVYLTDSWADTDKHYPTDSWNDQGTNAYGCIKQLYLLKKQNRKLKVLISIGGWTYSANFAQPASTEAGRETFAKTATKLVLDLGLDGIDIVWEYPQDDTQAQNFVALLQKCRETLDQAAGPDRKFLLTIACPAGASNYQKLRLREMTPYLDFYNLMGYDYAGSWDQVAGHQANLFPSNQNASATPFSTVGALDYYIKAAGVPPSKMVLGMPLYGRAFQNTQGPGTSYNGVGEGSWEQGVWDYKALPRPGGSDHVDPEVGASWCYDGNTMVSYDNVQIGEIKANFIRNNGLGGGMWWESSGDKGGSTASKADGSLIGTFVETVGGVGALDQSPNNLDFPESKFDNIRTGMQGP
# TfChit (Talaromyces flavus; D136V/W209A), sequence (chain, as listed by the source D136V W209A): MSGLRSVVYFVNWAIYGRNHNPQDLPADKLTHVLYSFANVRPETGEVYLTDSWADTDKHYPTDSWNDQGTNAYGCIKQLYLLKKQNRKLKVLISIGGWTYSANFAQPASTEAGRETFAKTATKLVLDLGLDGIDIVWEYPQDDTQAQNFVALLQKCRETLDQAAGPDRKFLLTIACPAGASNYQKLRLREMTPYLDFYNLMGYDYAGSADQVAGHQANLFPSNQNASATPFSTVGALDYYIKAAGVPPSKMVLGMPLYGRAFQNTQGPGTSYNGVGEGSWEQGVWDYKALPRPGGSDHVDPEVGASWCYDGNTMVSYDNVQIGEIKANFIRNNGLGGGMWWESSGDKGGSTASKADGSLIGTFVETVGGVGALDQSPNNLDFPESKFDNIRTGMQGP
# TfChit (Talaromyces flavus; S181W), sequence (chain, as listed by the source S181W): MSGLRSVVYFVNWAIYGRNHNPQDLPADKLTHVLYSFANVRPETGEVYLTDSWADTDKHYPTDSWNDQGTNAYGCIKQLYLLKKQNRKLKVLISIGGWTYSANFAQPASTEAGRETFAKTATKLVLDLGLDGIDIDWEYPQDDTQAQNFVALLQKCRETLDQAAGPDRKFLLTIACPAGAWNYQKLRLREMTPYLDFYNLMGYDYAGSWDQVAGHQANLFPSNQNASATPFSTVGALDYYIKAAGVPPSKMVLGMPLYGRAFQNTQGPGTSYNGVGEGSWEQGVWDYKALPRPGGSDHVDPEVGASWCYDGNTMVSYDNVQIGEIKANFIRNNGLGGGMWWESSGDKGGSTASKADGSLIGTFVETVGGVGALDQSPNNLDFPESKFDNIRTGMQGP
Substance,Km,kcat,kcat/Km
TfChit (Talaromyces flavus; F231W),1.1 mmol·L^–1,1.9 s⁻¹,1800 M⁻¹ s⁻¹
TfChit (Talaromyces flavus; S181W/W209A),2.6 mmol·L^–1,3.1 s⁻¹,1200 M⁻¹ s⁻¹
TfChit (Talaromyces flavus; D136V),1.1 mmol·L^–1,5.3 s⁻¹,5000 M⁻¹ s⁻¹
TfChit (Talaromyces flavus; S181W),1.5 mmol·L^–1,6 s⁻¹,4000 M⁻¹ s⁻¹
TfChit (Talaromyces flavus),1.2 mmol·L^–1,3.9 s⁻¹,3300 M⁻¹ s⁻¹
TfChit (Talaromyces flavus; D136V/S181W),4.3 mmol·L^–1,5.3 s⁻¹,1200 M⁻¹ s⁻¹
TfChit (Talaromyces flavus; F231W/W209A),1.3 mmol·L^–1,4.7 s⁻¹,3500 M⁻¹ s⁻¹
TfChit (Talaromyces flavus; D136V/W209A),3.6 mmol·L^–1,8.2 s⁻¹,2200 M⁻¹ s⁻¹
TfChit (Talaromyces flavus; D136V/S181W/W209A),2.0 mmol·L^–1,5.6 s⁻¹,2800 M⁻¹ s⁻¹
TfChit (Talaromyces flavus; W209A),3.3 mmol·L^–1,6.1 s⁻¹,1900 M⁻¹ s⁻¹
